Measured values published in patent US20150218281A1 (Ablynx, published 2015).
Blank lines part the entries; values can stand above or below the binder they belong to.

Legend:
[1] = target: T1, recombinant human OX40L (extracellular domain, R&D Systems) (human, UniProt P23510 51-183); experiment: cell-based or functional assay
T1 sequence: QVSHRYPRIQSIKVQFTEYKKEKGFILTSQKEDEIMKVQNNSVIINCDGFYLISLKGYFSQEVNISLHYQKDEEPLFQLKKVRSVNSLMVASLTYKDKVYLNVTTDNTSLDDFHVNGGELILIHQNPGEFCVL

[2] = target: T2, biotinylated hOX40L (R&D Systems, biotinylated in house) (human, UniProt P23510 51-183, biotinylated with Sulfo-NHS-LC-Biotin, sites not stated); experiment: hOX40L/hOX40 AlphaScreen, native sample
T2 construct: same bought protein as m10, biotinylated; also called biotinylated OX40L
T2 sequence: T1 sequence
Experimental: (§1) Next, streptavidin donor beads were added and incubated for an additional 1 hour. Fluorescence was measured by reading plates on the EnVision Multilabel Plate Reader using an excitation wavelength of 680 nm and an emission wavelength of 520 nm.
(§2) In the TSA assay, Nanobodies were diluted to a concentration of 0.2 mg/ml and melting temperature (Tm) was determined at different pH by stepwise increase in temperature in presence of Sypro Orange, a dye that binds to […] residues that become exposed upon unfolding of the protein, using the Lightcycler (Roche) for detection. […] In SEC analysis, the Nanobodies were analyzed on a Phenomenex matrix to allow detection of multimers, aggregates or ‘stickyness’.

hTNF-alpha [3] = target: T3, hTNF-alpha (human, UniProt P01375 77-233); experiment: competition ELISA: fixed concentration of OX40L01E07 pre-incubated with a concentration series of the competitor, then added to biotinylated hOX40L captured on neutravidin; OD450nm
T3 sequence (P01375 77-233 limits assumed): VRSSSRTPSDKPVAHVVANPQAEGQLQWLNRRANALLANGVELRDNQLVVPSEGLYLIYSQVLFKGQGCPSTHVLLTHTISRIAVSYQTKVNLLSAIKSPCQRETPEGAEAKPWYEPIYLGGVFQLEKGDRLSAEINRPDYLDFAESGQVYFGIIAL
Experimental: (§3) The binding of OX40L blocking Nanobodies to other TNF family members was tested in a competition ELISA.
(§4) Detection was done using sTMB (SDT Reagents, Baesweiler, Germany), the reaction was stopped with 1M HCl and absorbance was determined at 450 nm.

hCD40L [4] = target: T4, hCD40L (human, UniProt P29965 113-261); experiment: as above
T4 sequence (looked up): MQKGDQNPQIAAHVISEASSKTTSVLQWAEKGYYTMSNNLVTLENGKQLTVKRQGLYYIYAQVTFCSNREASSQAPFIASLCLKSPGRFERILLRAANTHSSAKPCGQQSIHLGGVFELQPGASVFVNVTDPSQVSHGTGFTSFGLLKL
Experimental: as §3, §4

hCD30L [5] = target: T5, hCD30L (human, UniProt P32971 63-234); experiment: as above
T5 sequence (looked up): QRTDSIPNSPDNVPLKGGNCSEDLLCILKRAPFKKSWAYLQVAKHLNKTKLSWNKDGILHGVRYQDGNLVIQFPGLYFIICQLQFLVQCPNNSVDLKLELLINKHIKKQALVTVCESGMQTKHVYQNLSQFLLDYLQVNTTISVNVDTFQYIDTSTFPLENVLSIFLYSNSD
Experimental: as §3, §4

[6] = target: T6, human Receptor Activator for Nuclear Factor kappa B Ligand (human, UniProt O14788 143-317, limits assumed); experiment: as above
T6 construct: also called hRANKL; RANKL
T6 sequence (looked up): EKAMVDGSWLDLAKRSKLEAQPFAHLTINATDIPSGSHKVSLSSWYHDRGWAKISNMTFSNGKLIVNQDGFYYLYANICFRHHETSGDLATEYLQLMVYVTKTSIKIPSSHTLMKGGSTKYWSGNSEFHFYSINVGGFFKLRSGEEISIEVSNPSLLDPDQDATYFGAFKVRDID
Experimental: as §3, §4

[7] = target: T7, human tumor necrosis factor-related apoptosis inducing ligand (human, UniProt P50591 114-281); experiment: as above
T7 construct: also called hTRAIL; TRAIL
T7 sequence (P50591 114-281 limits assumed): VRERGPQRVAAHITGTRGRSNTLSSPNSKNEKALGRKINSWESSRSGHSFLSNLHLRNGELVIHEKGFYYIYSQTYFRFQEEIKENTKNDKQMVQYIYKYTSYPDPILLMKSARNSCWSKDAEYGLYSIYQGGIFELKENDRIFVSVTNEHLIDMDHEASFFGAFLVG
Experimental: as §3, §4

hTNF-alpha [8] = target: T3, hTNF-alpha; experiment: competition ELISA on neutravidin captured biotinylated hOX40L
Experimental: as §3, §4

hCD40L [9] = target: T4, hCD40L; experiment: as above
Experimental: as §3, §4

hCD30L [10] = target: T5, hCD30L; experiment: as above
Experimental: as §3, §4

[11] = target: T6, human Receptor Activator for Nuclear …; experiment: as above
Experimental: as §3, §4

[12] = target: T7, human tumor necrosis factor-related …; experiment: as above
Experimental: as §3, §4

[13] = target: T2, biotinylated hOX40L (R&D Systems, …); experiment: hOX40L/hOX40 AlphaScreen, assay 1, native
Experimental: Next, streptavidin donor beads were added and incubated for an additional 1 hour. Fluorescence was measured by reading plates on the EnVision Multilabel Plate Reader using an excitation wavelength of 680 nm and an emission wavelength of 520 nm. […]

[14] = target: T2, biotinylated hOX40L (R&D Systems, …); experiment: hOX40L/hOX40 AlphaScreen, assay 2, native
Experimental: as §1, §2

[15] = target: T2, biotinylated hOX40L (R&D Systems, …); experiment: hOX40L/hOX40 AlphaScreen, assay 3, native
[16] = target: T2, biotinylated hOX40L (R&D Systems, …); experiment: hOX40L/hOX40 AlphaScreen, assay 2, heated at Tm+10 C

IC50, T cell assay with rec. hOX40L [1]: 1.48 nM
IC50 [2]: 0.1 nM
binding result (hTNF-alpha [3]): no binding
binding result (hCD40L [4]): no binding
binding result (hCD30L [5]): no binding
binding result [6]: no binding
B1: OX40L01E07 (VHH)
VHH: EVQLVESGGGLVQAGGSLRLSCAASGRTFSSIYAKGWFRQAPGKEREFVAAISRSGRSTSYADSVKGRFTISRDNAKNTVYLQMNSLKPEDTAVYYCAAVGGATTVTASEWDYWGLGTQVTVSS
notes: monovalent Nanobody from E. coli; not shown: C-terminal c-myc and His6 tag
binding result [7]: no binding

IC50 [2]: 0.54 nM
B2: OX40L01B11 (VHH)
VHH: EVQLVESGGGLVQAGGSLRLSCVASGRSFSTYIMGWFRQAPGKEREFVATISRSGITTRSADSVKGRFTISRDNAKNTVYLQMNSLKPEDTAVYYCAAGPYVEQTLGLYQTLGPWDYWGQGTQVTVSS
notes: as for B1
binding result (hTNF-alpha [8]): no binding (tested: starting from 100 fold molar excess)
binding result (hCD40L [9]): no binding (tested: starting from 100 fold molar excess)
binding result (hCD30L [10]): no binding (tested: starting from 100 fold molar excess)
binding result [11]: no binding (tested: starting from 100 fold molar excess)
binding result [12]: no binding (tested: starting from 100 fold molar excess)

IC50 [13]: 0.102 nM
IC50 [14]: 0.066 nM
IC50 [15]: 0.077 nM
IC50 [16]: 0.103 nM
B3: OX40L15B07 (VHH)
VHH: EVQLVESGGGLVQAGGSLRLSCAASRSIGRLDRMGWYRHRTGEPRELVATITGGSSINYGDFVKGRFTISIDNAKNTVYLQMNNLKPEDTAVYYCNFNKYVTSRDTWGQGTQVTVSS
notes: as for B1
binding result (hTNF-alpha [8]): no binding (tested: starting from 100 fold molar excess)
binding result (hCD40L [9]): no binding (tested: starting from 100 fold molar excess)
binding result (hCD30L [10]): no binding (tested: starting from 100 fold molar excess)
binding result [11]: no binding (tested: starting from 100 fold molar excess)
binding result [12]: no binding (tested: starting from 100 fold molar excess)
